Laboratory results taken from publication PMC8501228 (Cell Reports, 2021).

Molecular target: SARS-CoV-2 Spike S1, 6x His-tagged recombinant protein (16-685 aa, YP_009724390.1) (SARS-CoV-2, UniProt P0DTC2 16-685)
Experiment: ELISA

B1: galectin-8 (LGALS8) recombinant protein (1-317 aa, AAF19370.1) (natural protein)
chain: MMLSLNNLQNIIYNPVIPFVGTIPDQLDPGTLIVIRGHVPSDADRFQVDLQNGSSMKPRADVAFHFNPRFKRAGCIVCNTLINEKWGREEITYDTPFKREKSFEIVIMVLKDKFQVAVNGKHTLLYGHRIGPEKIDTLGIYGKVNIHSIGFSFSSDLQSTQASSLELTEISRENVPKSGTPQLRLPFAARLNTPMGPGRTVVVKGEVNANAKSFNVDLLAGKSKDIALHLNPRLNIKAFVRNSFLQESWGEEERNITSFPFSPGMYFEMIIYCDVREFKVAVNGVHSLEYKHRFKELSSIDTLEINGDIHLLEVRSW
  binding result: binds
